Experimental data taken from patent publication US20070037210A1 (VALO HSJ LIMITED PARTNERSHIP, published 2007).
Non-standard residues stand in square brackets, D forms with d. No end group written: not given here.

T1: Interleukin-1 receptor accessory protein (IL-1RacP), on A549 carcinoma cells (human, UniProt Q9NPH3 21-570)
T1 sequence (looked up): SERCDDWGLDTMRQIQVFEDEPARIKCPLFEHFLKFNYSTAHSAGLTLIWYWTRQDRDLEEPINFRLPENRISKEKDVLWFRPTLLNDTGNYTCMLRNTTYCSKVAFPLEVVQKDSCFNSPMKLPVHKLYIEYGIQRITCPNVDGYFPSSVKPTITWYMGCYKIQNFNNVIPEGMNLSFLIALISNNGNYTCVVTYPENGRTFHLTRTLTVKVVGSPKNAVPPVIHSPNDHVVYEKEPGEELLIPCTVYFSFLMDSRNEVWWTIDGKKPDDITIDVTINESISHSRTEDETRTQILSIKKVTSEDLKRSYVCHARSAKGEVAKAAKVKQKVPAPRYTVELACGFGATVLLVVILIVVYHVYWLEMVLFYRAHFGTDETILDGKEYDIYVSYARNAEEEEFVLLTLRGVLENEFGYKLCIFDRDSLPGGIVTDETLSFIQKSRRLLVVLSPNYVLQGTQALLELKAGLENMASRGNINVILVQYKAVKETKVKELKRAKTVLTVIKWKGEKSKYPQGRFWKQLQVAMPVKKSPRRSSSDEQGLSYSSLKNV


Biological target: T1, Interleukin-1 receptor accessory …
Assay: cell-based or functional assay

Row | Binder | IL-1 induced proliferation in A549 carcinoma cells, 3H-thymidine incorporation
1 | MKLPVHKLY [API-103] | 1000 nM
2 | VGSPKNAVPPV [API-106] | 10000 nM
3 | APRYTVELA [API-101] | 1000 nM

Biological target: Insulin-like growth factor-1 receptor (IGF-1R) (human, UniProt P08069 31-1367)
Assay: cell-based or functional assay

Insulin-like growth factor-1 receptor (IGF-1R), sequence (P08069 31-1367): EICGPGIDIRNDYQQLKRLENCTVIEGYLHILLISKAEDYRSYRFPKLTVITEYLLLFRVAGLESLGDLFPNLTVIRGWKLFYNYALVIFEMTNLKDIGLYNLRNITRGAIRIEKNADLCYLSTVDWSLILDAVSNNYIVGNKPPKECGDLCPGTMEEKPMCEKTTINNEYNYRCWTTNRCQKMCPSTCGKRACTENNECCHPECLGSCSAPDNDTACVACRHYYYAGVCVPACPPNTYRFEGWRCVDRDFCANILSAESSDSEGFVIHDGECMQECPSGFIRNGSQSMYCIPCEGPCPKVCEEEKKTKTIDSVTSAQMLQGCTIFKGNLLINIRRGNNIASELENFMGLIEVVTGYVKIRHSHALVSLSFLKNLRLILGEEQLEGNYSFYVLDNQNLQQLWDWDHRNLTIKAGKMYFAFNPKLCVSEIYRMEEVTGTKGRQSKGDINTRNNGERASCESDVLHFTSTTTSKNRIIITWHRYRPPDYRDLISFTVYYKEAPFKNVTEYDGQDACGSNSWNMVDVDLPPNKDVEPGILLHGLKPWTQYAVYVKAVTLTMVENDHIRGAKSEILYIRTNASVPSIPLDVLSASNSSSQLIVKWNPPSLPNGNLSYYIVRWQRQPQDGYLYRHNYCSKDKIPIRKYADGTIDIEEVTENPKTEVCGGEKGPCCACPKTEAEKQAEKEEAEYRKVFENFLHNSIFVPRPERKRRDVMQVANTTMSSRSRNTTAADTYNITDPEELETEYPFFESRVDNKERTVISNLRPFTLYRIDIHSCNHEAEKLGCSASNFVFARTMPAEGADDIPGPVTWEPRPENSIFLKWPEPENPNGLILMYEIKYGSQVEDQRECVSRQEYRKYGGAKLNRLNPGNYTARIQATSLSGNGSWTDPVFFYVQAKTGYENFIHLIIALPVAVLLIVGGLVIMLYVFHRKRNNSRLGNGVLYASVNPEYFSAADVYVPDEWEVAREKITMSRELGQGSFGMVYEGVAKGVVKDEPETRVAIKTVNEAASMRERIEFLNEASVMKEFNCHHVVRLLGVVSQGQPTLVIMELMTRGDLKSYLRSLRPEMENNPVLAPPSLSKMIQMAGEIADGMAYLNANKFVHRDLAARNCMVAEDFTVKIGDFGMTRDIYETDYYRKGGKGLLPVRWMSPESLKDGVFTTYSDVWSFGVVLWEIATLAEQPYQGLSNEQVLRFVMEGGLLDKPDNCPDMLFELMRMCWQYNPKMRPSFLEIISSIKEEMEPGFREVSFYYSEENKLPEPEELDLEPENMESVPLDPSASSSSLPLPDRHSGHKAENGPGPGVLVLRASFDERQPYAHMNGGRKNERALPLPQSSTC

Row | Binder | IGF-1 induced proliferation in A549 carcinoma cells, 3H-thymidine incorporation
4 | [dE][dS][dD][dV][dL][dH][dF][dT][dS][dT] [APG-202] | 10 nM
5 | [dL][dR][dK][dY][dA][dD]G[dT][dL] [APG-204] | 10 nM
6 | [dS][dL][dF][dV][dP][dR][dP][dE][dR][dK] [APG-201] | 1000 nM
